According to patent publication US20240182580A1:

Tests used:
[1] = biological target: CD74 on human tumour cell lines (human) (UniProt P04233); experiment: flow cytometry on ARD (MM) cells; Table 3 repeats Table 2
[2] = biological target: CD74 on human tumour cell lines (human) (UniProt P04233); experiment: flow cytometry on ARP-1 (MM) cells; Table 3 repeats Table 2
[3] = biological target: CD74 on human tumour cell lines (human) (UniProt P04233); experiment: flow cytometry on BDCM (AML) cells; Table 3 repeats Table 2
[4] = biological target: CD74 on human tumour cell lines (human) (UniProt P04233); experiment: flow cytometry on JVM-13 (CLL) cells; Table 3 repeats Table 2; design: Bmax: unit not given here
[5] = biological target: CD74 on human tumour cell lines (human) (UniProt P04233); experiment: flow cytometry on SUP-B15 (ALL) cells; Table 3 repeats Table 2; design: Bmax: unit not given here
[6] = biological target: CD74 on human tumour cell lines (human) (UniProt P04233); experiment: flow cytometry on ARD (MM) cells, one-site specific binding fit
[7] = biological target: CD74 on human tumour cell lines (human) (UniProt P04233); experiment: flow cytometry on RPMI-6666 (HL) cells; Table 3 repeats Table 2
[8] = biological target: CD74 on human tumour cell lines (human) (UniProt P04233); experiment: flow cytometry on RPMI-8226 (MM) cells; Table 3 repeats Table 2
[9] = biological target: CD74 on human tumour cell lines (human) (UniProt P04233); experiment: flow cytometry on SU-DHL-6 (NHL) cells; Table 3 repeats Table 2
[10] = biological target: CD74 on human tumour cell lines (human) (UniProt P04233); experiment: flow cytometry on BDCM (AML) cells, one-site specific binding fit
[11] = biological target: CD74 on human tumour cell lines (human) (UniProt P04233); experiment: flow cytometry on JVM-13 (CLL) cells, one-site specific binding fit
[12] = biological target: CD74 on human tumour cell lines (human) (UniProt P04233); experiment: flow cytometry on SUP-B15 (ALL) cells, one-site specific binding fit
[13] = biological target: CD74 on human tumour cell lines (human) (UniProt P04233); experiment: flow cytometry on RPMI-6666 (HL) cells, one-site specific binding fit
[14] = biological target: CD74 on human tumour cell lines (human) (UniProt P04233); experiment: flow cytometry on RPMI-8226 (MM) cells, one-site specific binding fit
[15] = biological target: CD74 on human tumour cell lines (human) (UniProt P04233); experiment: flow cytometry on SU-DHL-6 (NHL) cells, one-site specific binding fit
[16] = biological target: CD74 on human tumour cell lines (human) (UniProt P04233); experiment: flow cytometry on ARD (MM) cells, geometric MFI, one-site specific binding fit
[17] = biological target: CD74 on human tumour cell lines (human) (UniProt P04233); experiment: flow cytometry on ARP-1 (MM) cells, geometric MFI, one-site specific binding fit
[18] = biological target: CD74 on human tumour cell lines (human) (UniProt P04233); experiment: flow cytometry on BDCM (AML) cells, geometric MFI, one-site specific binding fit
[19] = biological target: CD74 on human tumour cell lines (human) (UniProt P04233); experiment: flow cytometry on JVM-13 (CLL) cells, geometric MFI, one-site specific binding fit
[20] = biological target: CD74 on human tumour cell lines (human) (UniProt P04233); experiment: flow cytometry on SUP-B15 (ALL) cells, geometric MFI, one-site specific binding fit
[21] = biological target: CD74 on human tumour cell lines (human) (UniProt P04233); experiment: flow cytometry on RPMI-6666 (HL) cells, geometric MFI, one-site specific binding fit
[22] = biological target: CD74 on human tumour cell lines (human) (UniProt P04233); experiment: flow cytometry on RPMI-8226 (MM) cells, geometric MFI, one-site specific binding fit
[23] = biological target: CD74 on human tumour cell lines (human) (UniProt P04233); experiment: flow cytometry on SU-DHL-6 (NHL) cells, geometric MFI, one-site specific binding fit

- Bmax [1]: 190
- Kd [1]: 2.6 nM
- Bmax [2]: 341
- Bmax [3]: 3060
- Kd [3]: 4.5 nM
- Bmax [4]: 447
- Kd [4]: 2.5 nM
- Bmax [5]: 680
- Kd [5]: 3.5 nM
- Kd [6]: 2.6 nM
- Bmax [7]: 3880
- Kd [7]: 2.3 nM
- Bmax [8]: 119
- Kd [8]: 3.6 nM
- Bmax [9]: 1560
- Kd [9]: 2 nM
- Kd [10]: 4.5 nM
- Kd [11]: 2.5 nM
- Kd [12]: 3.5 nM
- Kd [13]: 2.3 nM
- Kd [14]: 3.6 nM
- Kd [15]: 2 nM
- Bmax [16]: 190
- Bmax [17]: 341
- Bmax [18]: 3060
- Bmax [19]: 447
- Bmax [20]: 680
- Bmax [21]: 3880
- Bmax [22]: 119
- Bmax [23]: 1560
B1: anti-CD74 antibody without conjugation (anti-CD74 IgG of Examples 2 and 3) (antibody, V domains shown)
VH: QVQLVESGGGVVQPGRSLRLSCAASGFNFSDYGMHWVRQAPGKGLEWVAVIWYDGSISYYADSVKGRFTISRDNSKNTLYLQMNSLRAEDTAVYYCARGGTVEHGAVYGTDVWGQGTTVTVSS
VL: DIQMTQSPSSVSASVGDRVTITCRASQGIGSWLAWYQQKPGKAPKLLIYAADRLQSGVPSRFSGSGSGTDFTLTISSLQPEDFATYYCQQYHTYPLTFGGGTKVEIK
